Measurements published in patent US10413564B2, “Compositions and methods for combating drug-resistant cancers” (NATIONAL YANG-MING UNIVERSITY, priority 2016, dated 2019).
Entries after “also recorded” stand apart in the source; their conditions may differ. Read-outs that look alike come from different tables or passages of the source.

How the values were obtained:
[1] = system: OECM1-Ctx^R or primary HNSCC cells; assay: Sensitization to cetuximab treatment by pathway inhibitors
Procedure: (§2) A total of 5×10^4 cells per well were seeded in a 96-well plate with triplicate and incubated for 24 h and then treated with different concentrations of indicated drugs. After 24 h treatment, the medium was removed. The MTT assay solution was added to each well, and the plate was incubated for 1 h at 37° C. After incubation, the solution was carefully discarded and dimethyl sulphoxide was added to dissolve newly formed mitochondrial MTT crystals. Finally, the plate was read using a microplate reader at 540 nm. Based on the data of cell viability assay, IC50-value calculation was performed by Sigmaplot 10.0 (Systat Software Inc., San Jose, Calif.).

OECM1-Ctx^R cells [2] = assay: Growth inhibition of the cetuximab-resistant subline OECM1-Ctx^R; format: cell-based, human
Procedure: as §2

FaDu-Ctx^R cells = assay: Growth inhibition of the cetuximab-resistant subline FaDu-Ctx^R; format: cell-based, human
Procedure: A cetuximab-resistant HNSCC subline (named FaDu-Ctx^R) was established by in vivo selection. 1×10^5 wild-type FaDu cells per mouse were inoculated into the subcutaneous area of Balb/c nude mice (n=4). Two mice were treated with PBS and two were treated with cetuxmab once a week. […] After 10 weeks, the xenograpfted tumor was harvested for primary culture. […] The resistance of FaDu-Cxt^R was confirmed in vivo and in vitro. Subsequently, these two sublines were inoculated into nude mice again and treated with cetuximab.
After 24 h treatment, the medium was removed.

NF-κB = NF-κB luciferase reporter assay; format: cell-based, human; conditions: cetuximab-resistant cells
From the text: Activation of NF-κB in cetuximab-resistant cells was evident by an increased expression of nuclear p65 and p52 proteins and an enhanced NF-κB activity. Knockdown of LTB reduced nuclear p65 and p52, and suppression of LTB by either shRNA or a LTβ neutralizing antibody reduced NF-κB reporter activity.
The reporter constructs (PGL4.2-LTB-WT/PGL4.2-LTB-MUT/pGL4.23 promoter) were co-transfected into HEK-293T, FaDu or OECM1/OECM1-Ctx^R cells with different expression/control vector(s) as indicated in each experiment. A plasmid expressing the bacterial β-galactosidase gene (pCMV-βgal) was co-transfected in each experiment as an internal control for transfection efficiency. Cells were harvested after 48 hours of transfection and luciferase activities were assayed. The relative promoter activities were expressed as the fold-change in luciferase activity after normalization to β-galactosidase activity.

EGFR [3] = biological target: T1, EGFR (Homo sapiens, UniProt P00533); assay: EGFR Y1068 phosphorylation in OECM1-Ctx^R treated with LTβ β-sheet peptides; format: cell-based; set-up: examined the effect of treating the peptides containing different β-sheets of LTβ on OECM1-Ctx^R; endogenous in cells; host or cells: OECM1-CtxR (cetuximab-resistant subline of OECM1); parental OECM1 for comparison
EGFR [4] = biological target: T1, EGFR; assay: In vitro kinase assay of EGFR phosphorylation; format: biochemical; set-up: Since LTβ also induces EGFR-ICD phosphorylation in vitro
From the text: (§1) Since LTβ also induces EGFR-ICD phosphorylation in vitro, the applicant also investigated whether interception of EGFR-ICD and LTβ interaction could attenuate EGFR phosphorylation.

EGF-EGFR binding = biological target: T2, EGF-EGFR binding (Homo sapiens, UniProt P00533); assay: EGF binding (flow cytometry); format: cell-based; conditions: OECM1-Ctx^R
T2 construct: examined the effect of treating the peptides containing different β-sheets of LTβ on OECM1-Ctx^R; endogenous in cells; host or cells: OECM1-CtxR (cetuximab-resistant subline of OECM1); parental OECM1 for comparison
Procedure: To analyze EGF binding, the cells were resuspended, incubated in a PE-conjugated anti-EGF antibody and evaluated using a Cytomics FC 500 instrument (Beckman-Coulter Inc., Fullerton, Calif.). The EGF-bound populations were defined compared with the IgG control group.

EGFR [5] = biological target: T1, EGFR; assay: EGFR dimerization in OECM1-Ctx^R; format: cell-based; set-up: examined the effect of treating the peptides containing different β-sheets of LTβ on OECM1-Ctx^R; endogenous in cells; host or cells: OECM1-CtxR (cetuximab-resistant subline of OECM1); parental OECM1 for comparison
EGFR-ICD = EGFR-ICD (Homo sapiens, UniProt P00533); assay: In vitro binding assay, EGFR-ICD and LTβ interaction; conditions: LTβ β-sheet peptides
From the text: as §1

OECM1-Ctx^R cells [6] = assay: Clonogenecity assay, sensitization of OECM1-Ctx^R to cetuximab by peptides; format: cell-based, human; conditions: OECM1-Ctx^R / cetuximab-resistant cells
Procedure: The colonies were stained with crystal violet and counted if the size was great than 0.5 mm.
5,000 cells/well were seeded into 24-well plates. After 10 days of culturing, cells were washed by cold PBS twice and fixed by 4% paraformaldehyde for 1 hour. Cells then were stained by 0.005% crystal violet at 4° C. overnight. Colonies with a diameter larger than 0.5 mm were counted.

EGFR-ECD = EGFR-ECD (Homo sapiens, UniProt P00533); assay: Peptide in vitro binding assay with EGFR-ECD; conditions: in vitro binding assay of peptides P1-P10
Procedure: The purified full-length EGFR and EGFR-ECD was incubated with peptides containing sequences of different β-sheets of LTβ.
P1-P10 (SEQ ID NOs: 2-10) were tested for in vitro binding assay.

[7] = system: colorectal tumors harboring a KRAS mutation; conditions: patients, FDA approval background; cited from earlier work

**Q.** With `CC(C)C[C@H](NC(=O)[C@H](Cc1ccccc1)NC(=O)c1cnccn1)B(O)O` [bortezomib] as the compound, how does the “sensitization to cetuximab treatment by inhibition of NF-κB activity” value [1] read?
**A.** Its value is “sensitized”.

**Q.** With “CCGGCGAGAGGGTGTACGTCAACATCTCGAGATGTTGACGTACACCCTCTCGTTTTT G (CCGGCGAGAGGGTGTACGTCAACATCTCGAGATGTTGACGTACACCCTCTCGTTTTTG; expressed or natural sequence) [shRNA]” as the compound, how does the “cetuximab resistance after knockdown of LTβ” value (OECM1-Ctx^R cells [2]) read?
**A.** Its value is “reverses cetuximab resistance”.

**Q.** And the “cetuximab resistance after knockdown of LTβ” value (FaDu-Ctx^R cells)?
**A.** The value was “reverses cetuximab resistance”.

**Q.** And the NF-κB reporter activity (NF-κB)?
**A.** Its NF-κB reporter activity is “reduced”.

**Q.** With ERVYVNISH (beta-sheet of LTbeta) [P9] as the compound, how does the “EGFR Y1068 phosphorylation” value (EGFR [3]; listed as 9th β-sheet) read?
**A.** Its value is “suppressed; also recorded: more prominent effect”.

**Q.** And the “EGFR phosphorylation, in vitro kinase assay” value (EGFR [4])?
**A.** The value was “suppresses EGFR phosphorylation most significantly”.

**Q.** What about the EGF-EGFR binding (EGF-EGFR binding) of the same compound?
**A.** The EGF-EGFR binding was “reduced”.

**Q.** And the EGFR dimerization (EGFR [5])?
**A.** Its EGFR dimerization is “inhibits”.

**Q.** What about the “interaction in the in vitro binding assay (EGFR-ICD context)” value (“interaction … (EGFR-ICD context)” below) (EGFR-ICD) of the same compound?
**A.** The value was “interacted with LTβ”.

**Q.** What about the “sensitization to cetuximab treatment by peptide” value (OECM1-Ctx^R cells [6]; listed as 9th β-sheet) of the same compound?
**A.** The value was “capable for sensitizing; also recorded: sensitized”.

**Q.** And the “interaction with EGFR-ECD” value (EGFR-ECD)?
**A.** Its value is “interact”.

**Q.** For “QDGLYYLYCLVGYR (beta-sheet of LTbeta) [P5]”, which “EGFR Y1068 phosphorylation” value (EGFR [3]) is on record?
**A.** Its value is “suppressed”.

**Q.** What about the “EGFR phosphorylation, in vitro kinase assay” value (EGFR [4]) of the same compound?
**A.** The value was “suppresses EGFR phosphorylation most significantly”.

**Q.** What about the “interaction … (EGFR-ICD context)” value (EGFR-ICD) of the same compound?
**A.** The value was “interacted with LTβ”.

**Q.** What about the “sensitization to cetuximab treatment by peptide” value (OECM1-Ctx^R cells [6]; listed as 5th β-sheet) of the same compound?
**A.** Its value is “capable for sensitizing; also recorded: sensitized”.

**Q.** And the “interaction with EGFR-ECD” value (EGFR-ECD)?
**A.** The value was “interact”.

**Q.** Which “interaction … (EGFR-ICD context)” value (EGFR-ICD) does the source give for “WYTSVGFGGLVQLR (beta-sheet of LTbeta) [P8]” here?
**A.** The value was “interacted with LTβ”.

**Q.** What about the “interaction with EGFR-ECD” value (EGFR-ECD) of the same compound?
**A.** The value was “interact”.

**Q.** With panitumumab as the compound, how does the “effect in colorectal tumors harboring a KRAS mutation” value [7] read?
**A.** The value was “little or no effect”.
